Starred links: 1 amine or outer side, 2 acyl side, 3 side chain; linkers in the order of their positions; H or OH if unused. Non-standard residues stand in square brackets, D forms with d. Residues, ends and D or L forms follow the SMILES beside them. Groups on a side chain read outwards from the residue. No end group written: not given here. *: point of attachment. N_Butyl_Phe = CCCCN([C@@H](Cc1ccccc1)C(=O)[*:2])[*:1]; C18 diacid = O=C(O)CCCCCCCCCCCCCCCCC(=O)*; X8 = O=C([C@H](CCc1nn[nH]n1)N[*:1])[*:2]; Dip = N[C@H](C(=O)O)C(c1ccccc1)c1ccccc1; γGlu = O=C(O)[C@H](CCC(=O)[*:2])N[*:1]; His(τ-Me) = Cn1cnc(C[C@H](N)C(=O)O)c1; Palmitoyl = CCCCCCCCCCCCCCCC(=O)*; Myristoyl = CCCCCCCCCCCCCC(=O)*; β3hF = N[C@H](CC(=O)O)Cc1ccccc1; NMeK = CN[C@@H](CCCCN)C(=O)O; Isovaleryl = CC(C)CC(=O)*; AEEA = NCCOCCOCC(=O)O; Propionyl = CCC(=O)*; Ahx = NCCCCCC(=O)O; βAla = NCCC(=O)O
These molecules were tested against T1, ferroportin (Homo sapiens, UniProt Q9NP59) (assay: FPN activity assay: internalization/degradation of ferroportin-GFP in stably transfected HEK293 cells (loss of GFP fluorescence)). Details: Table 6A; read-out: FPN EC50.
T1 sequence (Q9NP59 1-571): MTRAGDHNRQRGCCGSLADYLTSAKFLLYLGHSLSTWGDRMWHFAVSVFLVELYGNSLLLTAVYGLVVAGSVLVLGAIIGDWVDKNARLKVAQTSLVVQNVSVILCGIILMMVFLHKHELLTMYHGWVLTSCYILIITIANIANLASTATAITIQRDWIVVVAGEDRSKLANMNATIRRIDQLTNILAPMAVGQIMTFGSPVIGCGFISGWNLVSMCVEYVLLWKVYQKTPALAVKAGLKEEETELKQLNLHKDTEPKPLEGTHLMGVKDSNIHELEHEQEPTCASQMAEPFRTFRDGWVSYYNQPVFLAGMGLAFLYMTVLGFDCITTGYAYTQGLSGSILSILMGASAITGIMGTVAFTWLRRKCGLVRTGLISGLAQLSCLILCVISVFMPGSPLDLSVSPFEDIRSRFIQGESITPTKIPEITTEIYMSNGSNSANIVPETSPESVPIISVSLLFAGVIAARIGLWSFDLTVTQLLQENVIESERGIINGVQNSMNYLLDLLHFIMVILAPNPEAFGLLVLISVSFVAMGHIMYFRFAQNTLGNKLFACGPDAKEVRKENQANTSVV
Assay type: cell-based
Protocol: Following internalization, the ferroporin protein is degraded.
A retro inverse peptide is a peptide with a reversed sequence in all D amino acids. An example is that Hy-Glu-Thr-His-NH2 becomes Hy-DHis-DThr-DGlu-NH2. The EC50 of these reference compounds for ferroportin internalization/degradation was determined according to the FPN activity assay described above. These peptides served as control standards.

Molecule	DC50 [nM]
CCCCCCCCCCCCCCCC(=O)NCCCCCC(=O)NCCCC[C@H](NC(=O)[C@@H](NC(=O)[C@H](C)NC(=O)[C@@H]1CCCN1C(=O)[C@@H](NC(=O)[C@H](Cc1cn(C)cn1)NC(=O)[C@@H](NC(=O)[C@H](CC(C)C)NC(=O)CC(C)C)[C@@H](C)O)C(c1ccccc1)c1ccccc1)[C@@H](C)CC)C(=O)N[C@H](CC(N)=O)Cc1ccccc1 [compound 45] (Isovaleryl-LT[His(τ-Me)][Dip]PAIK([Ahx-Palmitoyl])[β3hF]-NH2)	> 3000
CC[C@H](C)[C@H](NC(=O)[C@H](C)NC(=O)[C@@H]1CCCN1C(=O)[C@@H](NC(=O)[C@H](Cc1cn(C)cn1)NC(=O)[C@@H](NC(=O)[C@H](CCc1nn[nH]n1)NC(=O)CC(C)C)[C@@H](C)O)C(c1ccccc1)c1ccccc1)C(=O)N[C@@H](CCCCNC(C)=O)C(=O)N[C@H](CC(=O)N[C@H](CCCCN)C(=O)N[C@@H](C)C(N)=O)Cc1ccccc1 [compound 40] (Isovaleryl-[X8]T[His(τ-Me)][Dip]PAIK(Ac)[β3hF][dK]A-NH2)	> 3000
CC[C@H](C)[C@H](NC(=O)[C@H](C)NC(=O)[C@@H]1CCCN1C(=O)[C@@H](NC(=O)[C@H](Cc1cn(C)cn1)NC(=O)[C@@H](NC(=O)[C@H](CCC(=O)O)NC(=O)CC(C)C)[C@@H](C)O)C(c1ccccc1)c1ccccc1)C(=O)N[C@@H](CCCCNC(C)=O)C(=O)N[C@H](CC(=O)N[C@H](CCCCN)C(=O)N[C@@H](C)C(N)=O)Cc1ccccc1 [compound 36] (Isovaleryl-ET[His(τ-Me)][Dip]PAIK(Ac)[β3hF][dK]A-NH2)	> 3000
CCCCCCCCCCCCCCCC(=O)NCCCCCC(=O)NCCOCCOCC(=O)NCCOCCOCC(=O)NCCCC[C@H](NC(=O)[C@@H](NC(=O)[C@H](C)NC(=O)[C@@H]1CCCN1C(=O)[C@@H](NC(=O)[C@H](Cc1c[nH]cn1)NC(=O)[C@@H](NC(=O)[C@H](CCC(=O)O)NC(=O)CC(C)C)[C@@H](C)O)C(c1ccccc1)c1ccccc1)[C@@H](C)CC)C(=O)N[C@H](CC(N)=O)Cc1ccccc1 [compound 101] (Isovaleryl-ETH[Dip]PAIK([AEEA-AEEA-Ahx-Palmitoyl])[β3hF]-NH2)	63.5
CCCCCCCCCCCCCCCC(=O)NCCCCCC(=O)NCCCC[C@H](NC(=O)C[C@H](Cc1ccccc1)NC(=O)[C@H](CCCCN)N(C)C(=O)[C@@H](NC(=O)[C@H](C)NC(=O)[C@@H]1CCCN1C(=O)[C@@H](NC(=O)[C@H](Cc1c[nH]cn1)NC(=O)[C@@H](NC(=O)[C@H](CC(C)C)NC(=O)CC(C)C)[C@@H](C)O)C(c1ccccc1)c1ccccc1)[C@@H](C)CC)C(N)=O [compound 46] (Isovaleryl-LTH[Dip]PAI[NMeK][β3hF]K([Ahx-Palmitoyl])-NH2)	103

Same assay, conditions: ferroportin-GFP HEK293 cells, compound incubated at least 18 hours; read-out: FPN IC50

Molecule	DC50 [nM]
CCCCCCCCCCCCCC(=O)NCCCCCC(=O)NCCCC[C@H](NC(=O)[C@@H](NC(=O)[C@H](C)NC(=O)[C@@H]1CCCN1C(=O)[C@H](Cc1ccccc1)NC(=O)[C@H](Cc1c[nH]cn1)NC(=O)[C@@H](NC(=O)[C@H](CCC(=O)O)NC(=O)CC(C)C)[C@@H](C)O)[C@@H](C)CC)C(=O)N[C@@H](Cc1ccccc1)C(=O)N[C@@H](CCC(=O)O)C(=O)N1CCC[C@H]1C(=O)N[C@@H](CCCNC(=N)N)C(=O)N[C@@H](CO)C(=O)N[C@@H](CCCCN)C(=O)NCC(=O)N[C@@H](C)C(=O)N[C@H](CCCCN)C(N)=O [compound 245] (Isovaleryl-ETHFPAIK([Ahx-Myristoyl])FEPRSKGA[dK]-NH2)	1160
CCCCCCCCCCCCCCCC(=O)NCCCCCC(=O)NCCCC[C@H](NC(=O)[C@@H](NC(=O)[C@H](CC(C)C)NC(=O)[C@@H]1CCCN1C(=O)[C@@H](NC(=O)[C@H](Cc1c[nH]cn1)NC(=O)[C@@H](NC(=O)[C@H](CCC(=O)O)NC(=O)CC(C)C)[C@@H](C)O)C(c1ccccc1)c1ccccc1)[C@@H](C)CC)C(=O)N[C@@H](CC(C)C)C(N)=O [compound 205] (Isovaleryl-ETH[Dip]PLIK([Ahx-Palmitoyl])L-NH2)	37.4
CCCCCCCCCCCCCC(=O)NCCCCCC(=O)NCCCC[C@H](NC(=O)[C@@H](NC(=O)[C@H](C)NC(=O)[C@@H]1CCCN1C(=O)[C@H](Cc1ccccc1)NC(=O)[C@H](Cc1c[nH]cn1)NC(=O)[C@@H](NC(=O)[C@H](CCC(=O)O)NC(=O)CC(C)C)[C@@H](C)O)[C@@H](C)CC)C(=O)N[C@@H](Cc1ccccc1)C(=O)N[C@@H](CCC(=O)O)C(=O)N1CCC[C@H]1C(=O)N[C@@H](CCCNC(=N)N)C(=O)N[C@@H](CO)C(=O)N[C@@H](CCCCN)C(=O)NCC(=O)N[C@H](C)C(N)=O [compound 246] (Isovaleryl-ETHFPAIK([Ahx-Myristoyl])FEPRSKG[dA]-NH2)	1070
CC(C)CC(=O)N[C@@H](CCC(=O)O)C(=O)N[C@H](C(=O)N[C@@H](Cc1c[nH]cn1)C(=O)N[C@H](C(=O)N1CCC[C@H]1C(=O)N[C@H](CCCCNC(=O)COCCOCCNC(=O)COCCOCCNC(=O)CCCCCNC(=O)CCCCCCCCCCCCCCCCC(=O)O)C(=O)N[C@H](CC(N)=O)Cc1ccccc1)C(c1ccccc1)c1ccccc1)[C@@H](C)O [compound 214]	86.8
CCCCCCCCCCCCCCCC(=O)NCCCCCC(=O)NCCCC[C@H](NC(C)=O)C(=O)N[C@H](C(=O)N[C@@H](Cc1c[nH]cn1)C(=O)N[C@H](C(=O)N1CCC[C@H]1C(=O)N[C@@H](C)C(=O)N[C@H](C(=O)N[C@H](CCCCN)C(=O)N[C@H](CC(N)=O)Cc1ccccc1)[C@@H](C)CC)C(c1ccccc1)c1ccccc1)[C@@H](C)O [compound 201] (Ac-K([Ahx-Palmitoyl])TH[Dip]PAI[dK][β3hF]-NH2)	> 3000

Each molecule was assayed against T2, human ferroportin (SLC40A1) fused in frame with GFP, stably expressed in HEK293 cells (human, UniProt Q9NP59 1-571) (assay: cell-based or functional assay). Details: not given.
T2 sequence (looked up): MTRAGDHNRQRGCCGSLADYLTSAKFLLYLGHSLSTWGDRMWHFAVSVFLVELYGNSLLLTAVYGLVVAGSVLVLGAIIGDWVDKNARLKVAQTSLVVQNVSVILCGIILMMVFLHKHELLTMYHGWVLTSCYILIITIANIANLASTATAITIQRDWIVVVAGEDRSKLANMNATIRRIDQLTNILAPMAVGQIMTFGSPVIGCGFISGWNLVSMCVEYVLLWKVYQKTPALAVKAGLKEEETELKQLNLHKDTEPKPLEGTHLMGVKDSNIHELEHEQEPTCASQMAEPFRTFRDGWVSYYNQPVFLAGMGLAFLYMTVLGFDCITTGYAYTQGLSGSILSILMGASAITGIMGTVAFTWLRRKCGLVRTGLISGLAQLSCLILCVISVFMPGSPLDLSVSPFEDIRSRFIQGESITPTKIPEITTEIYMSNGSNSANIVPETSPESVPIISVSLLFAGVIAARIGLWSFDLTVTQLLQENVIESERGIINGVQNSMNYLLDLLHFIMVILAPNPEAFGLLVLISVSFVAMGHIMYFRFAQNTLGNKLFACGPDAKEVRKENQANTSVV

Molecule	FPN IC50 [nM]
Isovaleryl-LTH[Dip]PK([AEEA-AEEA-γGlu-C18 diacid])[N_Ethyl_Nap] [Isovaleric Acid-L-T-H-[Dpa]-P-[Lys(1PEG2_1PEG2_IsoGlu_C18_Diacid)]-N_Ethyl_Nap]	1440
Cyclohexanoic_Acid-LTH[Dip]PK([Ahx-Palmitoyl])[N_Butyl_Phe] [Cyclohexanoic_Acid-L-T-H-[Dpa]-P-[Lys(Ahx_Palm)]-N_Butyl_Phe]	3380
Octanoic_Acid-LTH[Dip]PK([Ahx-Palmitoyl])-N_Butyl_Phe [Octanoic_Acid-L-T-H-[Dpa]-P-[Lys(Ahx_Palm)]-N_Butyl_Phe]	1020
Isovaleryl-ETHFPAIK([γGlu-Myristoyl])FEPRSKGA[dK]-NH2 [Isovaleric Acid-E-T-H-F-P-A-I-[Lys(IsoGlu_C14_acid)]-F-E-P-R-S-K-G-A-[(D)Lys]-NH2]	718
Isovaleryl-ETHFPAIK([γGlu-Myristoyl])FEPR[dS]-NH2 [Isovaleric Acid-E-T-H-F-P-A-I-[Lys(IsoGlu_C14_acid)]-F-E-P-R-[(D)Ser]-NH2]	3680
Heptanoic_Acid-LTH[Dip]PK([Ahx-Palmitoyl])[N_Butyl_Phe] [Heptanoic_Acid-L-T-H-[Dpa]-P-[Lys(Ahx_Palm)]-N_Butyl_Phe]	> 3000
Isovaleryl-ETHFPAIK([γGlu-C12 acid])FEPRSKGAK-NH2 [Isovaleric Acid-E-T-H-F-P-A-I-[Lys(IsoGlu_C12_acid)]-F-E-P-R-S-K-G-A-K-NH2]	4490
Isovaleryl-LTH[Dip]K([Ahx-Palmitoyl])[N_Butyl_Phe] [Isovaleric Acid-L-T-H-[Dpa]-[Lys(Ahx_Palm)]-N_Butyl_Phe]	> 3000
Isovaleryl-LTH[Dip]P[NMeK]([Ahx-Palmitoyl])[N_Butyl_Phe] [Isovaleric Acid-L-T-H-[Dpa]-P-NMe[Lys(Ahx_Palm)]-N_Butyl_Phe]	62.6
Isovaleryl-[meL]TH[Dip]P[NMeK]([Ahx-Palmitoyl])-N_Butyl_Phe [Isovaleric Acid-meL-T-H-[Dpa]-P-NMe[Lys(Ahx_Palm)]-N_Butyl_Phe]	71
Isovaleryl-ETHFPAIK([γGlu-C10 acid])FEPRSKGAK-NH2 [Isovaleric Acid-E-T-H-F-P-A-I-[Lys(IsoGlu_C10_acid)]-F-E-P-R-S-K-G-A-K-NH2]	3310
Propionyl-LTH[Dip]PK([Ahx-Palmitoyl])[N_Butyl_Phe] [[Propionic_acid]-L-T-H-[Dpa]-P-[Lys(Ahx_Palm)]-N_Butyl_Phe]	218
Isovaleryl-ETHFPAIK([γGlu-Myristoyl])FEPRSKG[dA]-NH2 [Isovaleric Acid-E-T-H-F-P-A-I-[Lys(IsoGlu_C14_acid)]-F-E-P-R-S-K-G-[(D)Ala]-NH2]	5730
Isovaleryl-LTH[Dip]PK([γGlu-Palmitoyl])[N_Butyl_Phe] [Isovaleric Acid-L-T-H-[Dpa]-P-[Lys(IsoGlu_Palm)]-N_Butyl_Phe]	222
Isovaleryl-LTH[Dip]P[N_Butyl_Phe] [Isovaleric Acid-L-T-H-[Dpa]-P-N_Butyl_Phe]	1040
Cyclohexanecarboxylic_Acid-LTH[Dip]PK([Ahx-Palmitoyl])[N_Butyl_Phe] [Cyclohexanecarboxylic_Acid-L-T-H-[Dpa]-P-[Lys(Ahx_Palm)]-N_Butyl_Phe]	3300
Isovaleryl-LTH[Dip]PK([βAla-Palmitoyl])[N_Butyl_Phe] [Isovaleric Acid-L-T-H-[Dpa]-P-[Lys(bAla_Palm)]-N_Butyl_Phe]	469
